koff, kon and Kd data for one molecule are collected here from patent publication US20200181283A1 (AGENCY FOR SCIENCE TECHNOLOGY AND RESEARCH, published 2020).

Assay [1] deals with T1, purified human PRL-3 (human, UniProt O75365 1-173, limits assumed).
T1 construct: Antigen of the KinExA analysis; also called PTP4A3; PRL-3 antigen
Kind of assay: KinExA kinetic exclusion assay. For orientation: Kinetic exclusion samples the free partner from a solution-phase mixture.

Assay [2] addresses T1, purified human PRL-3. The assay can be described thus: KinExA kinetic exclusion assay, purified antibody and purified human PRL-3.

Broadly, the koff is the rate constant with which the complex falls apart. High values mean a short-lived complex, low ones a long-lived complex. Broadly, the kon is the rate constant with which the complex forms. Read a high kon as fast association. What is called Kd is the free concentration of one partner at which half of the binding sites on the other are occupied at equilibrium, for simple one-to-one binding.

T1 sequence (O75365 whole entry): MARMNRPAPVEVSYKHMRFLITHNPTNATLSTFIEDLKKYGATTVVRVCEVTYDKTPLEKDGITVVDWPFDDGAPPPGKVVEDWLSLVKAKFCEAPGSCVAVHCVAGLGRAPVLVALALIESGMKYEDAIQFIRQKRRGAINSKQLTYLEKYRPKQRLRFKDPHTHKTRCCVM

B1: PRL3-zumab (antibody, V domains shown)
VH: QVQLVQSGAEVKKPGASVKVSCKASGYTFTNYYMHWVRQAPGQLEWMGWIYPGNVNTYYNEKFRGRVTITADTSASTAYMLSSLRSEDTAVYYCASEEKNYPWFAYWGQGTLVTS
VL: DTQLTQSPSSLSASVGDRVTICKASQSVEDDGENYMNWYQQKPGSPKLLIYAASNLESGIPARFSGSGSGTDFTLTISSLPEDFATYYCQQSNEDPFTFGSGTKLEIK
In the assay with purified human PRL-3 [1], B1 came in with a dissociation rate constant (koff) of 6.68e-05 s⁻¹ and a kon of 1.06e+07 M⁻¹ s⁻¹. For the same molecule, the affinity with purified human PRL-3 [2], expressed as Kd, was 6.29 pM.
